This passage reports Kd and stoichiometry N results from article PMC4337483 (Journal of immunology (Baltimore, Md. : 1950), 2015).

Experiment [1] concerns the target BTN3A1 B30.2 domain (BTN3A1 residues 310-513) (Homo sapiens, UniProt O00481). The experiment can be described thus: isothermal titration calorimetry. Type of experiment: binding. (In general: Isothermal titration calorimetry measures the heat released or taken up as one component is titrated into another.)
Experiment [2] has as its target 3A1v2 cytoplasmic tail (protein used in ITC) (human). As to the kind of experiment: ITC.
Experiment [3] addresses BTN3A1 residues 310-513 (purified, His tag) (human) (UniProt O00481). As to the kind of experiment: ITC.

For orientation: Kd means the equilibrium constant for the complex coming apart. In experiment [1], `C=C(C)CCO[P@@](=O)(O)OP(=O)(O)O` [IPP] gave a Kd of 672000 nM.

B1: periplakin residues 133-530 (PPL BamH1, purified, His tag) (domain or fragment)
chain: DPQVNWAALVEEKLDKLNNQSFGTDLPLVDHQVEEHNIFHNEVKAIGPHLAKDGDKEQNSELRAKYQKLLAASQARQQHLSSLQDYMQRCTNELYWLDQQAKGRMQYDWSDRNLDYPSRRRQYENFINRNLEAKEERINKLHSEGDQLLAAEHPGRNSIEAHMEAVHADWKEYLNLLICEESHLKYMEDYHQFHEDVKDAQELLRKVDSDLNQKYGPDFKDRYQIELLLRELDDQEKVLDKYEDVVQGLQKRGQQVVPLKYRRETPLKPIPVEALCDFEGEQGLISRGYSYTLQKNNGESWELMDSAGNKLIAPAVCFVIPPTDPEALALADSLGSQYRSVRQKAAGSKRTLQQRYEVLKTENPGDASDLQGRQLLAGLDKVASDLDRQEKAITGILR
Broadly, the stoichiometry N is a count of units in the complex or per binding partner. In the case of B1, the Kd in experiment [2] was 580 nM. Further, in experiment [3], the Kd turned out to be 2100 nM and the stoichiometry N is 1.
